Substrate in data set [1]: CCCCC/C=C\C/C=C\C/C=C\C/C=C\CCCC(=O)O
Kind of data set: purified protein. The conditions noted are these: heme.

Substrate in data set [2]: CCCCC/C=C\C/C=C\C/C=C\C/C=C\CCCC(=O)Nc1cccc(O)c1
Kind of data set: purified protein. Conditions: heme.

B1: prostaglandin endoperoxide synthase-2 (PGHS-2) (Mus musculus) (protein)
chain: ANPCCSNPCQNRGECMSTGFDQYKCDCTRTGFYGENCTTPEFLTRIKLLLKPTPNTVHYILTHFKGVWNIVNNIPFLRSLIMKYVLTSRSYLIDSPPTYNVHYGYKSWEAFSNLSYYTRALPPVADDCPTPMGVKGNKELPDSKEVLEKVLLRREFIPDPQGSNMMFAFFAQHFTHQFFKTDHKRGPGFTRGLGHGVDLNHIYGETLDRQHKLRLFKDGKLKYQVIGGEVYPPTVKDTQVEMIYPPHIPENLQFAVGQEVFGLVPGLMMYATIWLREHNRVCDILKQEHPEWGDEQLFQTSRLILIGETIKIVIEDYVQHLSGYHFKLKFDPELLFNQQFQYQNRIASEFNTLYHWHPLLPDTFNIEDQEYSFKQFLYNNSILLEHGLTQFVESFTRQIAGRVAGGRNVPIAVQAVAKASIDQSREMKYQSLNEYRKRFSLKPYTSFEELTGEKEMAAELKALYSDIDVMELYPALLVEKPRPDAIFGETMVELGAPFSLKGLMGNPICSPQYWKPSTFGGEVGFKIINTASIQSLICNNVKGCPFTSFNVQDPQPTKTATINASASHSRLDDINPTVLIKRRSTEL
As for B1, in “purified protein [1]”, the Km turned out to be 2.5 ± 0.4 µM, the kcat amounted to 47 s⁻¹ and the catalytic efficiency (kcat/Km) came to 1.9e+07 M⁻¹ s⁻¹.

B2: prostaglandin endoperoxide synthase-1 (PGHS-1) (Ovis aries) (protein)
chain: ADPGAPAPVNPCCYYPCQHQGICVRFGLDRYQCDCTRTGYSGPNCTIPEIWTWLRTTLRPSPSFIHFLLTHGRWLWDFVNATFIRDTLMRLVLTVRSNLIPSPPTYNIAHDYISWESFSNVSYYTRILPSVPRDCPTPMDTKGKKQLPDAEFLSRRFLLRRKFIPDPQSTNLMFAFFAQHFTHQFFKTSGKMGPGFTKALGHGVDLGHIYGDNLERQYQLRLFKDGKLKYQMLNGEVYPPSVEEAPVLMHYPRGIPPQSQMAVGQEVFGLLPGLMLYATIWLREHNRVCDLLKAEHPTWGDEQLFQTARLILIGETIKIVIEEYVQQLSGYFLQLKFDPELLFGAQFQYRNRIAMEFNQLYHWHPLMPDSFRVGPQDYSYEQFLFNTSMLVDYGVEALVDAFSRQPAGRIGGGRNIDHHILHVAVDVIKESRVLRLQPFNEYRKRFGMKPYTSFQELTGEKEMAAELEELYGDIDALEFYPGLLLEKCHPNSIFGESMIEMGAPFSLKGLLGNPICSPEYWKASTFGGEVGFNLVKTATLKKLVCLNTKTCPYVSFHVPDPRQEDRPGVERPPTEL
As for B2, the Km in “purified protein [1]” was determined as 3.4 ± 0.6 µM. Also, in the data set “purified protein [2]”, the Km came to 15 ± 1 µM, the turnover number (kcat) turned out to be 22 ± 1 s⁻¹ and the catalytic efficiency (kcat/Km) stood at 1.5e+06 ± 1e+06 M⁻¹ s⁻¹.

The record behind these values is paper PMC2797370.
